T1: histidine-tagged C3-MKS1 truncation (amino acids 1-73)
T1 chain: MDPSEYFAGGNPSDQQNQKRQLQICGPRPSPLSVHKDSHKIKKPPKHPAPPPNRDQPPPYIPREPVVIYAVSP

T2: recombinant, full-length histidine-tagged MKS1
T2 chain: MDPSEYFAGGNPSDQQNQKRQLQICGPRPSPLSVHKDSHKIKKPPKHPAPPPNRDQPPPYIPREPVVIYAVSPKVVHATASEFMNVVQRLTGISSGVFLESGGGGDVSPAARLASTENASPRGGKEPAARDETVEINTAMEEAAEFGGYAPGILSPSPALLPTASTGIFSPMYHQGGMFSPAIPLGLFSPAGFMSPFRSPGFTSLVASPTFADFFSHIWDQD

T3: histidine-tagged C2-MKS1 truncation (amino acids 1-123)
T3 chain: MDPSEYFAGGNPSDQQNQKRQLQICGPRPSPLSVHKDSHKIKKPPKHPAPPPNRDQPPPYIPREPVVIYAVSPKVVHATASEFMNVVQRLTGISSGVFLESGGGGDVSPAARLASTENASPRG

T4: histidine-tagged C1-MKS1 truncation (amino acids 1-196)
T4 chain: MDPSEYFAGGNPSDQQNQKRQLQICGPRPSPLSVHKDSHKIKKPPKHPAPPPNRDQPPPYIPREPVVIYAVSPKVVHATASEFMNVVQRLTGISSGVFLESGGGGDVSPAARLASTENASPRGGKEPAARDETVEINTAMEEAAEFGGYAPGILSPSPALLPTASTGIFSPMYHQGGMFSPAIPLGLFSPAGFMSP

T5: Flg22 peptide
T5 chain: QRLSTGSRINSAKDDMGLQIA

T6: Pep22, synthetic peptide corresponding to amino acid residues 13-35 of MKS1
T6 chain: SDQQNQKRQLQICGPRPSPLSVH

T7: MPK4 as prey (AD fusion) (Arabidopsis thaliana, UniProt Q39024 1-376, limits assumed)
T7 construct: Used in the directed two-hybrid assay with MKS1 as bait; also called MPK4 prey
T7 sequence (looked up): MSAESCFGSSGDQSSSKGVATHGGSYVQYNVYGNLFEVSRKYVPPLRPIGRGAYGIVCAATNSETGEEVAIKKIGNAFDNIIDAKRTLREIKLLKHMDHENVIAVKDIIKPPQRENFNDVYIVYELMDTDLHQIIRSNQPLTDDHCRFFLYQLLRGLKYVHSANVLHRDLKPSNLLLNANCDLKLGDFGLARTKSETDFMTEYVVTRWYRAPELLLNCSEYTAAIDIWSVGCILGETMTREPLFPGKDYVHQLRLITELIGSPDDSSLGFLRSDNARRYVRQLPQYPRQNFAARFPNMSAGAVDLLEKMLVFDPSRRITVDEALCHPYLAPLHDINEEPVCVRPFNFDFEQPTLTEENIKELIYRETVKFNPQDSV

T8: MPK3 as prey (AD fusion) (UniProt Q39023 1-370)
T8 sequence (looked up): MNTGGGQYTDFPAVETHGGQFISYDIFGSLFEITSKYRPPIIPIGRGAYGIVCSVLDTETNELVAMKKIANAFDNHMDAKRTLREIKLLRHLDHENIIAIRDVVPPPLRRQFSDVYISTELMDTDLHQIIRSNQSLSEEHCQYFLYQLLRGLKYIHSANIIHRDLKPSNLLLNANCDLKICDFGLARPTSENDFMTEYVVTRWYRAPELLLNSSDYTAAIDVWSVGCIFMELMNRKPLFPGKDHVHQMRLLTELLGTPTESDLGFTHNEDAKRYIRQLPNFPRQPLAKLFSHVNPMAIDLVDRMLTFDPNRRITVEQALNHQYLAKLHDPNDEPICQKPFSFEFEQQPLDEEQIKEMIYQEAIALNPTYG

T9: MPK17 as prey (AD fusion) (UniProt Q84M93 1-486, limits assumed)
T9 sequence (looked up): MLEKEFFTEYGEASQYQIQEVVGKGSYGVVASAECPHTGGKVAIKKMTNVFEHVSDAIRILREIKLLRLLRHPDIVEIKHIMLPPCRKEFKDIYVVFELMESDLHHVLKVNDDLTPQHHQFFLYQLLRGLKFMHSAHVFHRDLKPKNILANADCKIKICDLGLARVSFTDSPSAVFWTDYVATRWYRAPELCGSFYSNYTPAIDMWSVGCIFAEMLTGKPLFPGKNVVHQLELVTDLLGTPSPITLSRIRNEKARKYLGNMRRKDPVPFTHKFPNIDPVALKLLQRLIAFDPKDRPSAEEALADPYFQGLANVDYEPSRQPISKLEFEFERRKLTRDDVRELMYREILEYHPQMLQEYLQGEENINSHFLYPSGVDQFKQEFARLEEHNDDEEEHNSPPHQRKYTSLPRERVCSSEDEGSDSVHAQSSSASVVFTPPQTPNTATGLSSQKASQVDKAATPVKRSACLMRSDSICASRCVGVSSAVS

B1: HA (influenza hemagglutin antigen)-tagged MPK4 (protein)
chain: YPYDVPDYAYPYDVPDYAYPYDVPDYAYPYDVPDYAYPYDVPDYAYPYDVPDYAMSAESCFGSSGDQSSSKGVATHGGSYVQYNVYGNLFEVSRKYVPPLRPIGRGAYGIVCAATNSETGEEVAIKKIGNAFDNIIDAKRTLREIKLLKHMDHENVIAVKDIIKPPQRENFNDVYIVYELMDTDLHQIIRSNQPLTDDHCRFFLYQLLRGLKYVHSANVLHRDLKPSNLLLNANCDLKLGDFGLARTKSETDFMTEYVVTRWYRAPELLLNCSEYTAAIDIWSVGCILGETMTREPLFPGKDYVHQLRLITELIGSPDDSSLGFLRSDNARRYVRQLPQYPRQNFAARFPNMSAGAVDLLEKMLVFDPSRRITVDEALCHPYLAPLHDINEEPVCVRPFNFDFEQPTLTEENIKELIYRETVKFNPQDSV
B2: C1-MKS1 truncation (amino acids 1-196), two-hybrid construct (other, not shown: large carriers)
chain: T4 chain
B3: C2-MKS1 truncation (amino acids 1-123), two-hybrid construct (other, not shown: large carriers)
chain: T3 chain
B4: C3-MKS1 truncation (amino acids 1-73), two-hybrid construct (other, not shown: large carriers)
chain: T1 chain
B5: MKS1 as bait (BD fusion), MKS1-BD (other)
chain: MKLLSSIEQACDICRLKKLKCSKEKPKCAKCLKNNWECRYSPKTKRSPLTRAHLTEVESRLERLEQLFLLIFPREDLDMILKMDSLQDIKALLTGLFVQDNVNKDAVTDRLASVETDMPLTLRQHRISATSSSEESSNKGQRQLTVSMDPSEYFAGGNPSDQQNQKRQLQICGPRPSPLSVHKDSHKIKKPPKHPAPPPNRDQPPPYIPREPVVIYAVSPKVVHATASEFMNVVQRLTGISSGVFLESGGGGDVSPAARLASTENASPRGGKEPAARDETVEINTAMEEAAEFGGYAPGILSPSPALLPTASTGIFSPMYHQGGMFSPAIPLGLFSPAGFMSPFRSPGFTSLVASPTFADFFSHIWDQD
notes: also called MKS1 bait; MAP Kinase Substrate 1
B6: N1-MKS1, N-terminal truncated form (amino acids 55-222), two-hybrid construct (other)
chain: DQPPPYIPREPVVIYAVSPKVVHATASEFMNVVQRLTGISSGVFLESGGGGDVSPAARLASTENASPRGGKEPAARDETVEINTAMEEAAEFGGYAPGILSPSPALLPTASTGIFSPMYHQGGMFSPAIPLGLFSPAGFMSPFRSPGFTSLVASPTFADFFSHIWDQD
notes: also called N-terminally deleted MKS1; not shown: GAL4 BD or AD fusion partner
B7: MPK5 as prey (AD fusion) (other, UniProt Q39025 127-376, looked up, not shown: large carriers)
chain: MDTDLHQIIRSNQSLNDDHCQYFLYQILRGLKYIHSANVLHRDLKPSNLLLNSNCDLKITDFGLARTTSETEYMTEYVVTRWYRAPELLLNSSEYTSAIDVWSVGCIFAEIMTREPLFPGKDYVHQLKLITELIGSPDGASLEFLRSANARKYVKELPKFPRQNFSARFPSMNSTAIDLLEKMLVFDPVKRITVEEALCYPYLSALHDLNDEPVCSNHFSFHFEDPSSTEEEIKELVWLESVKFNPLPSI
B8: WRKY29 as prey (AD fusion) (other, UniProt Q9SUS1 1-304, looked up, not shown: large carriers)
chain: MDEGDLEAIVRGYSGSGDAFSGESSGTFSPSFCLPMETSSFYEPEMETSGLDELGELYKPFYPFSTQTILTSSVSLPEDSKPFRDDKKQRSHGCLLSNGSRADHIRISESKSKKSKKNQQKRVVEQVKEENLLSDAWAWRKYGQKPIKGSPYPRSYYRCSSSKGCLARKQVERNPQNPEKFTITYTNEHNHELPTRRNSLAGSTRAKTSQPKPTLTKKSEKEVVSSPTSNPMIPSADESSVAVQEMSVAETSTHQAAGAIEGRRLSNGLPSDLMSGSGTFPSFTGDFDELLNSQEFFSGYLWNY
notes: mature
B9: WRKY25 as prey (AD fusion) (other, Arabidopsis thaliana, UniProt O22921 1-393, looked up, not shown: large carriers)
chain: MSSTSFTDLLGSSGVDCYEDDEDLRVSGSSFGGYYPERTGSGLPKFKTAQPPPLPISQSSHNFTFSDYLDSPLLLSSSHSLISPTTGTFPLQGFNGTTNNHSDFPWQLQSQPSNASSALQETYGVQDHEKKQEMIPNEIATQNNNQSFGTERQIKIPAYMVSRNSNDGYGWRKYGQKQVKKSENPRSYFKCTYPDCVSKKIVETASDGQITEIIYKGGHNHPKPEFTKRPSQSSLPSSVNGRRLFNPASVVSEPHDQSENSSISFDYSDLEQKSFKSEYGEIDEEEEQPEMKRMKREGEDEGMSIEVSKGVKEPRVVVQTISDIDVLIDGFRWRKYGQKVVKGNTNPRSYYKCTFQGCGVKKQVERSAADERAVLTTYEGRHNHDIPTALRRS
notes: Library clone; also called transcription factor WRKY25

Key:
[1] = target: T1, histidine-tagged C3-MKS1 truncation …
[2] = target: T2, recombinant, full-length …
[3] = target: T3, histidine-tagged C2-MKS1 truncation …
[4] = target: T4, histidine-tagged C1-MKS1 truncation …
Flg22 peptide = target: T5, Flg22 peptide
[5] = target: T6, Pep22, synthetic peptide corresponding …
MPK4 as prey (AD fusion) = target: T7, MPK4 as prey (AD fusion); assay: yeast two-hybrid assay
[6] = target: T10, WRKY33 as prey (AD fusion) (Arabidopsis thaliana, UniProt Q8S8P5 332-519, limits assumed); assay: yeast two-hybrid assay
T10 construct: The library hits were five different truncated WRKY33 proteins; also called W33; transcription factor WRKY33
T10 sequence (Q8S8P5 332-519 limits assumed): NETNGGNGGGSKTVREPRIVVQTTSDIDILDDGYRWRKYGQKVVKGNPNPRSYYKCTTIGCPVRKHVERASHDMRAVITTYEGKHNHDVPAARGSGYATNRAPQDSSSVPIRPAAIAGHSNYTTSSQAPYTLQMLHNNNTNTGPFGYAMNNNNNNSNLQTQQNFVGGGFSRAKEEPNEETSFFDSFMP

MPK3 as prey (AD fusion) = target: T8, MPK3 as prey (AD fusion); assay: directed yeast two-hybrid assay
Method: (§1) Yeast cells in the two hybrid screen were selected on the indicated nutrient depleted growth-media (-Histidine; -Leucine; -Adenine-Tryptophan) and assayed for β-galactosidase (β-gal) reporter gene activity.
(§2) To test the specificity of the MAP kinase interaction, the interaction of MKS1 with other plant MAP kinases was tested in the yeast two-hybrid assay.
(§3) The specificity of MKS1 interaction with WRKY transcription factors was examined in directed yeast two-hybrid assays with WRKY26 and WRKY29.

MPK6 as prey (AD fusion) = MPK6 as prey (AD fusion) (UniProt Q39026 1-395); assay: directed yeast two-hybrid assay
MPK6 as prey (AD fusion), sequence (Q39026 whole entry, the tested form may be a part): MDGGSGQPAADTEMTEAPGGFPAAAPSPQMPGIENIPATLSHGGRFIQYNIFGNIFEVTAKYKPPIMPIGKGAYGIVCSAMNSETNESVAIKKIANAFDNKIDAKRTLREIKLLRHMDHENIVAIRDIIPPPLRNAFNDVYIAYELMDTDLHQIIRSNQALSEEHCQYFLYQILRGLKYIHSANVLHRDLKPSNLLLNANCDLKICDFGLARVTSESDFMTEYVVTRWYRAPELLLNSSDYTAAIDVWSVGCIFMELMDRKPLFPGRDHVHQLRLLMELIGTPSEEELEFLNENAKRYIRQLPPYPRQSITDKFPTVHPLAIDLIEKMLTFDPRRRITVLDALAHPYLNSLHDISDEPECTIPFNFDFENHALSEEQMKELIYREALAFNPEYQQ
Method: as §1, §2, §3

[7] = target: T9, MPK17 as prey (AD fusion); assay: directed yeast two-hybrid assay
Method: as §1, §2, §3

[8] = target: B5; assay: directed yeast two-hybrid assay
Method: as §1, §2, §3

MPK4 as bait (BD fusion) = target: T11, MPK4 as bait (BD fusion) (Arabidopsis thaliana, UniProt P04386 1-147; Q39024 1-376); assay: directed yeast two-hybrid assay
T11 construct: also called MPK4 bait
Method: as §1, §2, §3

B1
in vitro phosphorylation assay (32P-γ-ATP, SDS-PAGE, phosphorimager) [1]: HA-tagged MPK4 readily phosphorylated both full-length and C-terminal MKS1 truncations, including C3 MKS1 | in vitro phosphorylation assay (32P-γ-ATP, SDS-PAGE, phosphorimager) [2]: HA-tagged MPK4, immunoprecipitated from Arabidopsis plants, is shown to in vitro phosphorylate MKS1 as efficiently as myelin basic protein | in vitro phosphorylation assay (32P-γ-ATP, SDS-PAGE, phosphorimager) [3]: HA-tagged MPK4 readily phosphorylated both full-length and C-terminal MKS1 truncations, including C3 MKS1 | in vitro phosphorylation assay (32P-γ-ATP, SDS-PAGE, phosphorimager) [4]: HA-tagged MPK4 readily phosphorylated both full-length and C-terminal MKS1 truncations, including C3 MKS1 | competition of MKS1 phosphorylation by MPK4 in vitro (Flg22 peptide): the FIG. 22 peptide did not compete MKS1 phosphorylation | competition of MKS1 phosphorylation by MPK4 in vitro [5]: Pep22 is an efficient competitor of full-length MKS1 for phosphorylation by MPK4, when added to the in vitro assay in a molar ratio of 1:1 (Pep22:MKS1)

B2
binding result (MPK4 as prey (AD fusion)): binds

B3
binding result (MPK4 as prey (AD fusion)): binds

B4
binding result [6]: no binding | binding result (MPK4 as prey (AD fusion)): binds

B5
binding result (MPK3 as prey (AD fusion)): no binding | binding result (MPK6 as prey (AD fusion)): no binding | binding result [7]: no binding

B6
binding result (MPK4 as prey (AD fusion)): no binding

B7
binding result [8]: no binding

B8
binding result [8]: no binding

B9
binding result (MPK4 as bait (BD fusion)): no binding

— patent US20070271623A1 (UNIVERSITY OF COPENHAGEN, published 2007)
